The numbers were not newly measured in paper PMC7462287, which cites them from elsewhere.

In this data set the target is Protective antigen heptamer (Bacillus anthracis) (UniProt P13423). Put plainly: SPR. (SPR reads the build-up and loss of mass on a sensor chip optically.)
Chain of Protective antigen heptamer (Bacillus anthracis) (P13423 197-764): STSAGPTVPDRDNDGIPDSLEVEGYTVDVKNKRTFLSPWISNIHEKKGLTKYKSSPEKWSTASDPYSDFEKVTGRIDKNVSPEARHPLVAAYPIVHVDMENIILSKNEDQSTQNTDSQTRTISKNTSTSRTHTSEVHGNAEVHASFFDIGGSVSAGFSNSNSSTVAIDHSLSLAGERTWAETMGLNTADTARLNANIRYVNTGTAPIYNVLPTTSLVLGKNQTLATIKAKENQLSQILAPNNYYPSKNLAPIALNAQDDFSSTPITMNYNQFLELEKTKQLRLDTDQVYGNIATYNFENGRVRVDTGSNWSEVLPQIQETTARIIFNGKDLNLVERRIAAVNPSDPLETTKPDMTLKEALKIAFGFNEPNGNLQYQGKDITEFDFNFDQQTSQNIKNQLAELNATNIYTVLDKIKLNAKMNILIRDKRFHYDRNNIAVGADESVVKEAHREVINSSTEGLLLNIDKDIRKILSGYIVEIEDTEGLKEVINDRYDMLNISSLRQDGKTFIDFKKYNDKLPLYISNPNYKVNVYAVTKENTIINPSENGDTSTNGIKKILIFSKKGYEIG

Chain of Edema factor (P40136 34-800): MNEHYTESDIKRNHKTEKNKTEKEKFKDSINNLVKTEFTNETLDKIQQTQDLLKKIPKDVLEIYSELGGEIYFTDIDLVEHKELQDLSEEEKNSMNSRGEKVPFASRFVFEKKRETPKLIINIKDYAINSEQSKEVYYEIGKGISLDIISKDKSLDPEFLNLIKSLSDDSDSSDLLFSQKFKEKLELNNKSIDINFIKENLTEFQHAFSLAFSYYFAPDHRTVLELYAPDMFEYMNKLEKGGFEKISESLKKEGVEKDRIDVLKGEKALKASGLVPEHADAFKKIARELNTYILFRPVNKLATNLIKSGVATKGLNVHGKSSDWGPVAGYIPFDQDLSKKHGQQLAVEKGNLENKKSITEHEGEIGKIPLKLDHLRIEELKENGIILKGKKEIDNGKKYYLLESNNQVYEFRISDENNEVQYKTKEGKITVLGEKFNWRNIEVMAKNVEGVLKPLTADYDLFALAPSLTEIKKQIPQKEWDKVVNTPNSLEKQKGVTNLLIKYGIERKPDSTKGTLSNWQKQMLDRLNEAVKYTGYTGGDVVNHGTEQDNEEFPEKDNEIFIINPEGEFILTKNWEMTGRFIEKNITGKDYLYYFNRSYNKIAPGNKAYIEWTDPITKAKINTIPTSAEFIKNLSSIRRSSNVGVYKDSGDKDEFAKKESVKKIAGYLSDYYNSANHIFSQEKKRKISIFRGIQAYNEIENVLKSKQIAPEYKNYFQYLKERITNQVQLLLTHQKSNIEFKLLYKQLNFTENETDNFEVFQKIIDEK

Usually Kd stands for the constant that tells how readily two partners part at equilibrium. As for Edema factor (from UniProt P40136), the Kd was 1.5 nM.
